Test results: patent US20090215075A1, “THREE-DIMENSIONAL STRUCTURE OF A DNAB-FAMILY R[…] (G40P), USES THEREOF, AND METHODS FOR […]-BACTERIAL PATHOGENS BY […] HELICASES AND THE INTERACTIONS OF DNAB HELICASE WITH PRIMASE” (priority 2007, published 2009)

B1: G40P N-terminal deletion mutant ΔN92 (enzyme)
chain: STTTFKQHCQTVSEYFQKRKAISIAQQIIENVNESDDGPVKPIQEAVSELMEIEASGTDDDDGSIDEALVTVYEEIESADGNITGVPSGFTELDRMTYGYKRRNFVLIAARPSMGKTAFALKQAKNMSDNDDVVNLHSLEMGKKENIKRLIVTAGSINAQKIKAARRDFASEDWGKLSMAIGEISNSNINIFDKAGQSVNYIWSKTRQTKRKNPGKRVIVMIDYLQLLEPAKANDSRTNQISQISRDLKKMARELDVVVIALSQLSRQVEQRQDKRPMLSDLRESGQLEQDADIIEFLYRDDYYDKESESKNIVEVIIAKHRDGPVGTVSLAFIKEYGNFVNLERRFDDR
notes: Lacks the N-globe and keeps an intact α-hairpin; Forms hexamers in gel filtration
B2: G40P N-terminal deletion mutant ΔN108 (enzyme)
chain: QKRKAISIAQQIIENVNESDDGPVKPIQEAVSELMEIEASGTDDDDGSIDEALVTVYEEIESADGNITGVPSGFTELDRMTYGYKRRNFVLIAARPSMGKTAFALKQAKNMSDNDDVVNLHSLEMGKKENIKRLIVTAGSINAQKIKAARRDFASEDWGKLSMAIGEISNSNINIFDKAGQSVNYIWSKTRQTKRKNPGKRVIVMIDYLQLLEPAKANDSRTNQISQISRDLKKMARELDVVVIALSQLSRQVEQRQDKRPMLSDLRESGQLEQDADIIEFLYRDDYYDKESESKNIVEVIIAKHRDGPVGTVSLAFIKEYGNFVNLERRFDDR
notes: Limits inferred from the name, by analogy with ΔN129 = residues 130-442; Forms hexamers in gel filtration
B3: G40P N-terminal deletion mutant ΔN112 (enzyme)
chain: AISIAQQIIENVNESDDGPVKPIQEAVSELMEIEASGTDDDDGSIDEALVTVYEEIESADGNITGVPSGFTELDRMTYGYKRRNFVLIAARPSMGKTAFALKQAKNMSDNDDVVNLHSLEMGKKENIKRLIVTAGSINAQKIKAARRDFASEDWGKLSMAIGEISNSNINIFDKAGQSVNYIWSKTRQTKRKNPGKRVIVMIDYLQLLEPAKANDSRTNQISQISRDLKKMARELDVVVIALSQLSRQVEQRQDKRPMLSDLRESGQLEQDADIIEFLYRDDYYDKESESKNIVEVIIAKHRDGPVGTVSLAFIKEYGNFVNLERRFDDR
notes: as for B2
B4: G40P N-terminal deletion mutant ΔN129 (enzyme)
chain: GPVKPIQEAVSELMEIEASGTDDDDGSIDEALVTVYEEIESADGNITGVPSGFTELDRMTYGYKRRNFVLIAARPSMGKTAFALKQAKNMSDNDDVVNLHSLEMGKKENIKRLIVTAGSINAQKIKAARRDFASEDWGKLSMAIGEISNSNINIFDKAGQSVNYIWSKTRQTKRKNPGKRVIVMIDYLQLLEPAKANDSRTNQISQISRDLKKMARELDVVVIALSQLSRQVEQRQDKRPMLSDLRESGQLEQDADIIEFLYRDDYYDKESESKNIVEVIIAKHRDGPVGTVSLAFIKEYGNFVNLERRFDDR
notes: Forms hexamers in gel filtration; also called G40P-Δ129; G40P truncated monomer
B5: G40P N-terminal fragment N149 (other)
chain: MNPEEKTVMLYNEYAEQAVLGSILTEPELIKECPLTPEHFSPGKHFNIYFTMQDLDRKGQSVDFTSIAARVGEKLPQLGGFGYLTELAASVASTTTFKQHCQTVSEYFQKRKAISIAQQIIENVNESDDGPVKPIQEAVSELMEIEASG
notes: Contains only the N-globe and α-hairpin domains; Limits inferred from the name; Behaved like a monomer in gel filtration
B6: G40P N-terminal fragment N171 (other)
chain: MNPEEKTVMLYNEYAEQAVLGSILTEPELIKECPLTPEHFSPGKHFNIYFTMQDLDRKGQSVDFTSIAARVGEKLPQLGGFGYLTELAASVASTTTFKQHCQTVSEYFQKRKAISIAQQIIENVNESDDGPVKPIQEAVSELMEIEASGTDDDDGSIDEALVTVYEEIESA
notes: as for B5
B7: B. subtilis DnaG primase (protein)
chain: MGNRIPDEIVDQVQKSADIVEVIGDYVQLKKQGRNYFGLCPFHGESTPSFSVSPDKQIFHCFGCGAGGNVFSFLRQMEGYSFAESVSHLADKYQIDFPDDITVHSGARPESSGEQKMAEAHELLKKFYHHLLINTKEGQEALDYLLSRGFTKELINEFQIGYALDSWDFITKFLVKRGFSEAQMEKAGLLIRREDGSGYFDRFRNRVMFPIHDHHGAVVAFSGRALGSQQPKYMNSPETPLFHKSKLLYNFYKARLHIRKQERAVLFEGFADVISAVSSDVKESIATMGTSLTDDHVKILRRNVEEIILCYDSDKAGYEATLKASELLQKKGCKVRVAMIPDGLDPDDYIKKFGGEKFKNDIIDASVTVMAFKMQYFRKGKNLSDEGDRLAYIKDVLKEISTLSGSLEQEVYVKQLASEFSLSQESLTEQLSVFSKQNKPADNSGETKTRRAHLTTKARQKRLRPAYENAERLLLAHMLRDRSVIKKVIDRVGFQFNIDEHRALAAYLYAFYEEGAELTPQHLMARVTDDHISQLLSDILMLQVNQELSEAELSDYVKKVLNQRNWSMIKEKEAERAEAERQKDFLRAASLAQEIVTLNRSLK

Each molecule was assayed against T1, B. subtilis DnaG primase (Bacillus subtilis, UniProt P05096 1-603, limits assumed) (assay: native gel shift assay, 10 ug G40P construct with 10 ug primase). Details: not given.
T1 construct: Recombinant
T1 sequence (looked up): B7 chain
Description: G40P/DnaB replicative helicases bind DnaG primase at the replication fork, this interaction is important for coordinating DNA unwinding by the helicase with RNA primer synthesis by the primase. We investigated the requirement of N-terminal domain of G40P in primase binding using the N-terminal deletions. […] We next examined if the isolated N-terminal domain of G40P can bind primase. The two constructs containing only the N-terminal α-hairpin and N-globe domains (N149 and N171) had no detectable primase binding in native gel shift assays (FIGS. 4d and 11). Both constructs behaved like monomers in gel filtration (data not shown).
(§1) Interactions between G40P and B. subtilis DnaG primase were examined using a native gel shift assay. 10 ug of various G40P constructs were mixed with 10 ug primase in a buffer containing 25 mM TrisHCl pH 8.0, 50 mM NaCl, 5 mM MgCl₂, and 1 mM ATP-γ-S and incubated for 30 minutes on ice. The protein mixtures were then analyzed by 6% polyacrymamide native gel electrophoresis at 150 voltage for one hour at 4 degrees C. The gel was stained by Coomassie blue for detection.

Molecule | binding result
B1 | no binding
B2 | no binding
B3 | no binding
B4 | no binding
B5 | no binding
B6 | no binding

What follows are molecules tested against G40P point mutant mt4 (assay: not given). Details: not given.

Molecule | primase-mediated stimulation of the ATPase and helicase activity of G40P
B7 | mt4 displayed much reduced primase-mediated stimulation of the ATPase and helicase activity of G40P

What follows are molecules tested against T2, B. subtilis DnaG primase (Bacillus subtilis, UniProt P05096) (assay: Native gel shift assay of primase binding). Details: native gel shift with B. subtilis DnaG primase.
T2 construct: GST (N); made in house; host or cells: E. coli
Experimental: as §1, with “MgCl2,” for “MgCl₂,”

Molecule | primase binding
B1 | devoid of primase binding
B2 | devoid of primase binding
B3 | devoid of primase binding
B4 | devoid of primase binding
B5 | no detectable primase binding
B6 | no detectable primase binding

The molecules below were run on 32P-labeled 60-base oligonucleotide annealed to circular M13mp18 ssDNA (assay: Helicase assay). Details: absence of primase; relative to full-length (wt) G40P.
Assay type: biochemical
Experimental: The substrate for the helicase assay was prepared by annealing a ^32P-labeled ssDNA (a 60-base oligonucleotide) to the circular M13mp18 ssDNA. This oligonucleotide has 35 nucleotides annealed to the M13 DNA, leaving a 25-nucleotide 5′ overhang. The substrate DNA was incubated with various amounts of different G40P mutant proteins in the presence or absence of primase at 37 degrees C. for 30 minutes in a buffer containing 20 mM Tris-HCl (pH 7.5), 5 mM ATP, 10 mM MgCl2, 1 mM DTT, and 50 mM NaCl. The reaction was terminated by adding a stop solution containing 100 mM EDTA, 0.5% SDS, and 50% glycerol. Samples were analyzed on a 12% native polyacrylamide gel in 1 M Tris/borate/EDTA running buffer. The unwinding of the substrate DNA was detected by autoradiography.

Molecule | helicase activity retained, of the wt activity [%]
B1 | ~66

Same assay, conditions: compared with wt G40P

Molecule | helicase activity (in words)
B2 | no detectable helicase activity
B3 | no detectable helicase activity
B4 | no detectable helicase activity
